The target in the assay is GAL4 DNA-binding domain fusion of the neuroglian^167 cytoplasmic domain with Y1234F (Drosophila). Kind of assay: two-hybrid.

Turning to “GAL4 activation domain–Drosophila ankyrin fusion protein (from UniProt Q24241 1-1549) (natural protein)”, the reduction of binding against wild type (β-galactosidase) came to 50%.

The values above are taken from PMC2133023.
